Data set [1] concerns the target T1, GST-p15.
T1 chain: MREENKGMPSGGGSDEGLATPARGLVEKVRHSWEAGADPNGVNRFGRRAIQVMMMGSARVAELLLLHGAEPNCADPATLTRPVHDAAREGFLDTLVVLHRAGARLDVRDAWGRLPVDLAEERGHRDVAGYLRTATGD

Data set [2] addresses T2, GST-p16 fusion protein.
T2 chain: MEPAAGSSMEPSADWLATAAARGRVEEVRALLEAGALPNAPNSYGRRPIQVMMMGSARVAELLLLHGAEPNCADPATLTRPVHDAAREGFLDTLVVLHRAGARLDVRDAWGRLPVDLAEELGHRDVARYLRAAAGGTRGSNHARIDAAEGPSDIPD

For data set [3], the target named is T3, p15.
T3 chain: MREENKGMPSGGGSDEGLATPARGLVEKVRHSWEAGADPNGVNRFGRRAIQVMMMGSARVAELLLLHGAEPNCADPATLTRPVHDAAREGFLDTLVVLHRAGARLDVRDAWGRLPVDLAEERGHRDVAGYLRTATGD

The target of data set [4] is T4, p16.
T4 chain: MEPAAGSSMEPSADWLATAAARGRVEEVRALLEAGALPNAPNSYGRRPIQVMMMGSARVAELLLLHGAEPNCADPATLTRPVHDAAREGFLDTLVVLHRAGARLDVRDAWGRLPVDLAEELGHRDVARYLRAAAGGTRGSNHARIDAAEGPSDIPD

For data set [5], the target named is p21, P38936.
Chain of p21, P38936 (P38936 whole entry): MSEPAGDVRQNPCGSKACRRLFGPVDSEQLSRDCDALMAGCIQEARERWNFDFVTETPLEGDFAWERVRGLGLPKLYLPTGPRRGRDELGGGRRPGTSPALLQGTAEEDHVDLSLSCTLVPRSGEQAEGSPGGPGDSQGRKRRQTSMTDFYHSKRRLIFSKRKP
For data set [6], the target named is p27.

These results are taken from patent publication US20030100489.

B1: CDK4 (wild-type) (protein)
chain: MATSRYEPVAEIGVGAYGTVYKARDPHSGHFVALKSVRVPNGGGGGGGLPISTVREVALLRRLEAFEHPNVVRLMDVCATSRTDREIKVTLVFEHVDQDLRTYLDKAPPPGLPAETIKDLMRQFLRGLDFLHANCIVHRDLKPENILVTSGGTVKLADFGLARIYSYQMALTPVVVTLWYRAPEVLLQSTYATPVDMWSVGCIFAEMFRRKPLFCGNSEADQLGKIFDLIGLPPEDDWPRDVSLPRGAFPPRGPRPVQSVVPEMEESGAQLLLEMLTFNPHKRISAFRALQHSYLHKDEGNPE
With B1, the “kinase activity of CDK4 (GST-RB phosphorylation)” value was “Like p16, the p15-GST fusion protein was able to inhibit the kinase activity of CDK4” in data set [1] and “Like p16, the p15-GST fusion protein was able to inhibit the kinase activity of CDK4” in data set [2]. Further, the “CDK4 kinase activity (GST-RB phosphorylation)” value in data set [3] is reported as “upon addition of increasing amounts of either p16- or p15containing lysate to the CDK4/cyclin D mixture, the wild-type CDK4 was inhibited”; in data set [4], “upon addition of increasing amounts of either p16- or p15containing lysate to the CDK4/cyclin D mixture, the wild-type CDK4 was inhibited”. Also, in data set [4], the “ability of CDK4 to phosphorylate RB” value is “In response to increasing amounts of p16, corresponding decreases in the ability of CDK4 to phosphorylate RB was observed”. In addition, in data set [5], the “RB phosphorylation by cyclin D/CDK4 (GST-RB substrate)” value is recorded as “Addition of increasing amounts of p21 resulted in the accumulation of cyclin D/CDK4/p21 ternary complexes with a corresponding inhibition of RB phosphorylation”.

B2: CDK4 Arg24-Cys mutant (protein)
chain: MATSRYEPVAEIGVGAYGTVYKACDPHSGHFVALKSVRVPNGGGGGGGLPISTVREVALLRRLEAFEHPNVVRLMDVCATSRTDREIKVTLVFEHVDQDLRTYLDKAPPPGLPAETIKDLMRQFLRGLDFLHANCIVHRDLKPENILVTSGGTVKLADFGLARIYSYQMALTPVVVTLWYRAPEVLLQSTYATPVDMWSVGCIFAEMFRRKPLFCGNSEADQLGKIFDLIGLPPEDDWPRDVSLPRGAFPPRGPRPVQSVVPEMEESGAQLLLEMLTFNPHKRISAFRALQHSYLHKDEGNPE
B2: the “CDK4 kinase activity (GST-RB phosphorylation)” value in data set [3] is on record as “the mutant CDK4 was relatively unaffected”; in data set [4], “the mutant CDK4 was relatively unaffected”; in data set [5], “the particular mutation, Arg24-Cys, did not effect the binding or inhibitory ability of either of those proteins”; in data set [6] it was “the particular mutation, Arg24-Cys, did not effect the binding or inhibitory ability of either of those proteins”.
